pIC50, pKd: −log10 of the molar value.
Assays:
Conditions in all cases: source organism: Influenza A virus (A/Puerto Rico/8/1934(H1N1))
HLA-A*02:01 = test: IEDB peptide-MHC binding, purified MHC/competitive/radioactivity; ≥ and ≤ were set here for values at or beyond the usual limits of such assays
HLA-B*07:02 = test: as above
HLA-A*11:01 = test: as above
HLA-A*03:01 = test: as above
HLA-A*31:01 = test: as above
HLA-A*68:01 [1] = test: IEDB peptide-MHC binding, purified MHC/competitive/radioactivity; filed as Kd, often an IC50 or EC50 that approximates it; ≥ and ≤ were set here for values at or beyond the usual limits of such assays
HLA-A*68:01 [2] = test: IEDB peptide-MHC binding, purified MHC/competitive/radioactivity; ≥ and ≤ were set here for values at or beyond the usual limits of such assays
HLA-A*33:01 [3] = test: IEDB peptide-MHC binding, purified MHC/competitive/radioactivity; filed as Kd, often an IC50 or EC50 that approximates it; ≥ and ≤ were set here for values at or beyond the usual limits of such assays
HLA-A*33:01 [4] = test: IEDB peptide-MHC binding, purified MHC/competitive/radioactivity; ≥ and ≤ were set here for values at or beyond the usual limits of such assays

| Sequence | pIC50 (HLA-A*02:01) | pIC50 (HLA-B*07:02) | other results |
| --- | --- | --- | --- |
| ALKMTMASV | 6.65 |  |  |
| APPKQSRMQF |  | 7.62 |  |
| APSPYNSRF |  | 7.72 |  |
| AVGKEFNKLEK |  |  | pIC50 (HLA-A*11:01): 6.89 |
| CIYRRFKYFLK |  |  | pIC50 (HLA-A*11:01): 6.64 |
| CLLQSLQQI | 6.80 |  |  |
| CPKYVRSAKL |  | 6.46 |  |
| FLWHVRKRV | 6.69 |  |  |
| FPNEVGARIL |  | 6.44 |  |
| FPSSSYRRPV |  | 7.68 |  |
| GIAPLQLGK |  |  | pIC50 (HLA-A*03:01): 7.74; pIC50 (HLA-A*11:01): 7.52; pIC50 (HLA-A*31:01): 6.55; pKd (HLA-A*68:01 [1]): 5.93 |
| GIHHPSNSK |  |  | pIC50 (HLA-A*11:01): 6.37 |
| GMFNMLSTV | 7.55 |  |  |
| GMGWLTIGI | 6.88 |  |  |
| GPALSINEL |  | 6.92 |  |
| GPDNGAVAVL |  | 6.30 |  |
| GPPCSQRSKF |  | 6.57 |  |
| GPVHFRNQV |  | 7.15 |  |
| GTHPSSSAGLK |  |  | pIC50 (HLA-A*11:01): 7.03 |
| ILWILDRLFFK |  |  | pIC50 (HLA-A*11:01): 7.68 |

| Sequence | pIC50 (HLA-A*02:01) | pIC50 (HLA-B*07:02) | other results |
| --- | --- | --- | --- |
| IPKQKVAGPL |  | 7.37 |  |
| ITNKVNSVIEK |  |  | pIC50 (HLA-A*11:01): 7.05 |
| KLESMGIYQI | 6.36 |  |  |
| KMNIQFTAV | 6.82 |  |  |
| KTRPILSPLTK |  |  | pIC50 (HLA-A*11:01): 6.92 |
| LILRGSVAHK |  |  | pIC50 (HLA-A*11:01): 6.73 |
| LLLEVEQEI | 6.67 |  |  |
| LLTEVETPI | 7.62 |  |  |
| LMDALKLSI | 7.40 |  |  |
| LPACVYGPAV |  | 6.66 |  |
| LPRRSGAAGA |  | 7.12 |  |
| LPSLPGHTA |  | 7.39 |  |
| LPVRSWSYIV |  | 6.68 |  |
| MLSTVLGVSI | 6.60 |  |  |
| NIQFTAVGK |  |  | pIC50 (HLA-A*11:01): 6.74 |
| NLYNIRNLHI | 7.21 |  |  |
| NPALRMKWM |  | 7.23 |  |
| NPRMFLAMI |  | 8.00 |  |
| RMNYYWTLLK |  |  | pIC50 (HLA-A*11:01): 8.59 |
| RMQFSSFTV | 7.55 |  |  |

| Sequence | pIC50 (HLA-A*02:01) | pIC50 (HLA-B*07:02) | other results |
| --- | --- | --- | --- |
| RPCFWVELI |  | 7.17 |  |
| RPWVSFDQNL |  | 6.40 |  |
| RTLDFHDSNVK |  |  | pIC50 (HLA-A*03:01): 6.85; pIC50 (HLA-A*11:01): 7.30; pIC50 (HLA-A*31:01): 5.82; pIC50 (HLA-A*68:01 [2]): 5.64; pKd (HLA-A*33:01 [3]): 5.20 |
| RVLSFIKGTK |  |  | pIC50 (HLA-A*03:01): 7.86; pIC50 (HLA-A*11:01): 7.14; pIC50 (HLA-A*31:01): 6.48; pIC50 (HLA-A*33:01 [4]): 5.88; pIC50 (HLA-A*68:01 [2]): 6.33 |
| SIIPSGPLK |  |  | pIC50 (HLA-A*03:01): 7.85; pIC50 (HLA-A*31:01): 5.37; pIC50 (HLA-A*68:01 [2]): 6.97 |
| SLLTEVETYV | 7.42 |  |  |
| SLPFQNIHPV | 7.02 |  |  |
| SMIEAESSV | 6.80 |  |  |
| SPGMMMGMF |  | 6.86 |  |
| SPKGVEESSI |  | 6.67 |  |
| SPYNSRFESV |  | 7.38 |  |
| STDTVDTVLEK |  |  | pIC50 (HLA-A*11:01): 7.05 |
| SVRNGTYDYPK |  |  | pIC50 (HLA-A*11:01): 7.37 |
| TMVMELVRMIK |  |  | pIC50 (HLA-A*03:01): 6.91; pIC50 (HLA-A*11:01): 6.71; pIC50 (HLA-A*31:01): 5.89 |
| TPLGAINSSL |  | 7.46 |  |
| VLLVSLGAI | 6.54 |  |  |
| VPASRYLTDM |  | 7.87 |  |
| WILDRLFFK |  |  | pIC50 (HLA-A*11:01): 8.12 |
| WMMAMKYPI | 7.14 |  |  |
| YPKLKNSYV |  | 6.75 |  |

From the Immune Epitope Database (IEDB)
